In patent US20240181006A1, “POLYPEPTIDES BINDING ADAMTS5, MMP13 AND AGGRECAN” (Merck Patent GmbH, priority 2017, published 2024):

Experiments:
[1] = biological target: bovine ADAMTS5 (bovine) (UniProt Q9TT92); assay: SPR (Biacore T100), ADAMTS5 immobilized on CM5, 100 nM ISVD, Experiment 3
[2] = biological target: recombinant dog Aggrecan G1-IGD-G2 (dog) (UniProt Q28343); assay: periplasmic extract ELISA on Dog G1-IGD-G2
[3] = biological target: recombinant bovine Aggrecan G1-IGD-G2 (bovine) (UniProt P13608); assay: periplasmic extract ELISA on Bov G1-IGD-G2
[4] = biological target: recombinant cynomolgus Aggrecan G1-IGD-G2 (cynomolgus); assay: periplasmic extract ELISA on Cy G1-IGD-G2
[5] = biological target: recombinant human Aggrecan G1-IGD-G2 (human) (UniProt P16112); assay: periplasmic extract ELISA on Hu G1-IGD-G2
[6] = biological target: recombinant rat Aggrecan G1-IGD-G2 (rat) (UniProt P07897); assay: periplasmic extract ELISA on Rat G1-IGD-G2

Row | koff [1] [s⁻¹] | OD 450 nm [2] [OD 450 nm] | OD 450 nm [3] [OD 450 nm] | OD 450 nm [4] [OD 450 nm] | OD 450 nm [5] [OD 450 nm] | OD 450 nm [6] [OD 450 nm] | Binder
1 | 4.3e-05 | – | – | – | – | – | anti-ADAMTS5 ISVD 02F03 (VHH) VHH: EVQLVESGGGVVQPGGSLRLSCAASGRTVSSYAMGWFRQAPGKEREFVAGISRSAERTYYVDSLKGRFTISRDNSKNTVYLQMNSLRPEDTALYYCAADLDPNRIFSREEYAYWGQGTLVTVSS
2 | – | 1.9 | 1.18 | 2.32 | 2.38 | 2.05 | anti-Aggrecan ISVD 114F08 (VHH) VHH: EVQLVESGGGLVQAGGSLRLSCAASGSTFIINVVRWYRRTPGKQRELVATISSGGNANYVDSVRGRFSISRDGAKNAVDLQMNGLKPEDTAVYYCNVPTTHYGGVYYGPYWGQGTLVTVSS
